The chains are these.
T1: Angptl2-FLAG, full-length human Angptl2 secreted from transfected 293T cells (human, UniProt Q9UKU9 23-493)
T1 construct: Runs partly as a high molecular weight (>250 kD) multimer; also called full-length Angptl2; FLAG-tagged Angptl2; not shown: FLAG tag at the C terminus
T1 sequence: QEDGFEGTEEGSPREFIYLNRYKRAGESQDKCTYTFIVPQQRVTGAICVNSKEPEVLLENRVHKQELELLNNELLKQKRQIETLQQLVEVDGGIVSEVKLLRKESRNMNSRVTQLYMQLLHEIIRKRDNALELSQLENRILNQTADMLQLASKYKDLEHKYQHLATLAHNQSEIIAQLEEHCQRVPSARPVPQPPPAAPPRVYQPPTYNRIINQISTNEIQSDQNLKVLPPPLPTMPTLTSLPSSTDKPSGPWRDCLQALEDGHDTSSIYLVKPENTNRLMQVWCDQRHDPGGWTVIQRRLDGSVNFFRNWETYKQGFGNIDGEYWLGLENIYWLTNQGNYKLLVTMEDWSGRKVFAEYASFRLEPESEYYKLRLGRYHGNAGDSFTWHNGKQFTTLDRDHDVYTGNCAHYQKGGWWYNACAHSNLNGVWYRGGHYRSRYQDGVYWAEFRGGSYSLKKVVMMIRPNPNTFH

B1: LILRB2 H92S on 293T cells (receptor)
chain: QTGTIPKPTLWAEPDSVITQGSPVTLSCQGSLEAQEYRLYREKKSASWITRIRPELVKNGQFHIPSITWESTGRYGCQYYSRARWSELSDPLVLVMTGAYPKPTLSAQPSPVVTSGGRVTLQCESQVAFGGFILCKEGEEEHPQCLNSQPHARGSSRAIFSVGPVSPNRRWSHRCYGYDLNSPYVWSSPSDLLELLVPGVSKKPSLSVQPGPVVAPGESLTLQCVSDVGYDRFVLYKEGERDLRQLPGRQPQAGLSQANFTLGPVSRSYGGQYRCYGAHNLSSECSAPSDPLDILITGQIRGTPFISVQPGPTVASGENVTLLCQSWRQFHTFLLTKAGAADAPLRLRSIHEYPKYQAEFPMSPVTSAHAGTYRCYGSLNSDPYLLSHPSEPLELVVSGPSMGSSPPPTGPISTPGPEDQPLTPTGSDPQSGLGRHLGVVIGILVAVVLLLLLLLLLFLILRHRRQGKHWTSTQRKADFQHPAGAVGPEPTDRGLQWRSSPAADAQEENLYAAVKDTQPEDGVEMDTRAAASEAPQDVTYAQLHSLTLRRKATEPPPSQEREPPAEPSIYATLAIH
B2: full-length LILRB2 R95E on 293T cells (receptor)
chain: QTGTIPKPTLWAEPDSVITQGSPVTLSCQGSLEAQEYRLYREKKSASWITRIRPELVKNGQFHIPSITWEHTGEYGCQYYSRARWSELSDPLVLVMTGAYPKPTLSAQPSPVVTSGGRVTLQCESQVAFGGFILCKEGEEEHPQCLNSQPHARGSSRAIFSVGPVSPNRRWSHRCYGYDLNSPYVWSSPSDLLELLVPGVSKKPSLSVQPGPVVAPGESLTLQCVSDVGYDRFVLYKEGERDLRQLPGRQPQAGLSQANFTLGPVSRSYGGQYRCYGAHNLSSECSAPSDPLDILITGQIRGTPFISVQPGPTVASGENVTLLCQSWRQFHTFLLTKAGAADAPLRLRSIHEYPKYQAEFPMSPVTSAHAGTYRCYGSLNSDPYLLSHPSEPLELVVSGPSMGSSPPPTGPISTPGPEDQPLTPTGSDPQSGLGRHLGVVIGILVAVVLLLLLLLLLFLILRHRRQGKHWTSTQRKADFQHPAGAVGPEPTDRGLQWRSSPAADAQEENLYAAVKDTQPEDGVEMDTRAAASEAPQDVTYAQLHSLTLRRKATEPPPSQEREPPAEPSIYATLAIH
notes: also called single mutation in R95
B3: full-length LILRB2 G94D on 293T cells (receptor)
chain: QTGTIPKPTLWAEPDSVITQGSPVTLSCQGSLEAQEYRLYREKKSASWITRIRPELVKNGQFHIPSITWEHTDRYGCQYYSRARWSELSDPLVLVMTGAYPKPTLSAQPSPVVTSGGRVTLQCESQVAFGGFILCKEGEEEHPQCLNSQPHARGSSRAIFSVGPVSPNRRWSHRCYGYDLNSPYVWSSPSDLLELLVPGVSKKPSLSVQPGPVVAPGESLTLQCVSDVGYDRFVLYKEGERDLRQLPGRQPQAGLSQANFTLGPVSRSYGGQYRCYGAHNLSSECSAPSDPLDILITGQIRGTPFISVQPGPTVASGENVTLLCQSWRQFHTFLLTKAGAADAPLRLRSIHEYPKYQAEFPMSPVTSAHAGTYRCYGSLNSDPYLLSHPSEPLELVVSGPSMGSSPPPTGPISTPGPEDQPLTPTGSDPQSGLGRHLGVVIGILVAVVLLLLLLLLLFLILRHRRQGKHWTSTQRKADFQHPAGAVGPEPTDRGLQWRSSPAADAQEENLYAAVKDTQPEDGVEMDTRAAASEAPQDVTYAQLHSLTLRRKATEPPPSQEREPPAEPSIYATLAIH
notes: also called single mutation in G94
B4: LILRB2 T393E on 293T cells (receptor)
chain: QTGTIPKPTLWAEPDSVITQGSPVTLSCQGSLEAQEYRLYREKKSASWITRIRPELVKNGQFHIPSITWEHTGRYGCQYYSRARWSELSDPLVLVMTGAYPKPTLSAQPSPVVTSGGRVTLQCESQVAFGGFILCKEGEEEHPQCLNSQPHARGSSRAIFSVGPVSPNRRWSHRCYGYDLNSPYVWSSPSDLLELLVPGVSKKPSLSVQPGPVVAPGESLTLQCVSDVGYDRFVLYKEGERDLRQLPGRQPQAGLSQANFTLGPVSRSYGGQYRCYGAHNLSSECSAPSDPLDILITGQIRGTPFISVQPGPTVASGENVTLLCQSWRQFHTFLLTKAGAADAPLRLRSIHEYPKYQAEFPMSPVTSAHAGEYRCYGSLNSDPYLLSHPSEPLELVVSGPSMGSSPPPTGPISTPGPEDQPLTPTGSDPQSGLGRHLGVVIGILVAVVLLLLLLLLLFLILRHRRQGKHWTSTQRKADFQHPAGAVGPEPTDRGLQWRSSPAADAQEENLYAAVKDTQPEDGVEMDTRAAASEAPQDVTYAQLHSLTLRRKATEPPPSQEREPPAEPSIYATLAIH
B5: LILRB2 MHC-S1 mutant (R59A/Y61A) on 293T cells (receptor)
chain: QTGTIPKPTLWAEPDSVITQGSPVTLSCQGSLEAQEYALAREKKSASWITRIRPELVKNGQFHIPSITWEHTGRYGCQYYSRARWSELSDPLVLVMTGAYPKPTLSAQPSPVVTSGGRVTLQCESQVAFGGFILCKEGEEEHPQCLNSQPHARGSSRAIFSVGPVSPNRRWSHRCYGYDLNSPYVWSSPSDLLELLVPGVSKKPSLSVQPGPVVAPGESLTLQCVSDVGYDRFVLYKEGERDLRQLPGRQPQAGLSQANFTLGPVSRSYGGQYRCYGAHNLSSECSAPSDPLDILITGQIRGTPFISVQPGPTVASGENVTLLCQSWRQFHTFLLTKAGAADAPLRLRSIHEYPKYQAEFPMSPVTSAHAGTYRCYGSLNSDPYLLSHPSEPLELVVSGPSMGSSPPPTGPISTPGPEDQPLTPTGSDPQSGLGRHLGVVIGILVAVVLLLLLLLLLFLILRHRRQGKHWTSTQRKADFQHPAGAVGPEPTDRGLQWRSSPAADAQEENLYAAVKDTQPEDGVEMDTRAAASEAPQDVTYAQLHSLTLRRKATEPPPSQEREPPAEPSIYATLAIH
B6: LILRB2 G392D on 293T cells (receptor)
chain: QTGTIPKPTLWAEPDSVITQGSPVTLSCQGSLEAQEYRLYREKKSASWITRIRPELVKNGQFHIPSITWEHTGRYGCQYYSRARWSELSDPLVLVMTGAYPKPTLSAQPSPVVTSGGRVTLQCESQVAFGGFILCKEGEEEHPQCLNSQPHARGSSRAIFSVGPVSPNRRWSHRCYGYDLNSPYVWSSPSDLLELLVPGVSKKPSLSVQPGPVVAPGESLTLQCVSDVGYDRFVLYKEGERDLRQLPGRQPQAGLSQANFTLGPVSRSYGGQYRCYGAHNLSSECSAPSDPLDILITGQIRGTPFISVQPGPTVASGENVTLLCQSWRQFHTFLLTKAGAADAPLRLRSIHEYPKYQAEFPMSPVTSAHADTYRCYGSLNSDPYLLSHPSEPLELVVSGPSMGSSPPPTGPISTPGPEDQPLTPTGSDPQSGLGRHLGVVIGILVAVVLLLLLLLLLFLILRHRRQGKHWTSTQRKADFQHPAGAVGPEPTDRGLQWRSSPAADAQEENLYAAVKDTQPEDGVEMDTRAAASEAPQDVTYAQLHSLTLRRKATEPPPSQEREPPAEPSIYATLAIH
B7: LILRB2 Q99R on 293T cells (receptor)
chain: QTGTIPKPTLWAEPDSVITQGSPVTLSCQGSLEAQEYRLYREKKSASWITRIRPELVKNGQFHIPSITWEHTGRYGCRYYSRARWSELSDPLVLVMTGAYPKPTLSAQPSPVVTSGGRVTLQCESQVAFGGFILCKEGEEEHPQCLNSQPHARGSSRAIFSVGPVSPNRRWSHRCYGYDLNSPYVWSSPSDLLELLVPGVSKKPSLSVQPGPVVAPGESLTLQCVSDVGYDRFVLYKEGERDLRQLPGRQPQAGLSQANFTLGPVSRSYGGQYRCYGAHNLSSECSAPSDPLDILITGQIRGTPFISVQPGPTVASGENVTLLCQSWRQFHTFLLTKAGAADAPLRLRSIHEYPKYQAEFPMSPVTSAHAGTYRCYGSLNSDPYLLSHPSEPLELVVSGPSMGSSPPPTGPISTPGPEDQPLTPTGSDPQSGLGRHLGVVIGILVAVVLLLLLLLLLFLILRHRRQGKHWTSTQRKADFQHPAGAVGPEPTDRGLQWRSSPAADAQEENLYAAVKDTQPEDGVEMDTRAAASEAPQDVTYAQLHSLTLRRKATEPPPSQEREPPAEPSIYATLAIH
B8: LILRB2 T93A on 293T cells (receptor)
chain: QTGTIPKPTLWAEPDSVITQGSPVTLSCQGSLEAQEYRLYREKKSASWITRIRPELVKNGQFHIPSITWEHAGRYGCQYYSRARWSELSDPLVLVMTGAYPKPTLSAQPSPVVTSGGRVTLQCESQVAFGGFILCKEGEEEHPQCLNSQPHARGSSRAIFSVGPVSPNRRWSHRCYGYDLNSPYVWSSPSDLLELLVPGVSKKPSLSVQPGPVVAPGESLTLQCVSDVGYDRFVLYKEGERDLRQLPGRQPQAGLSQANFTLGPVSRSYGGQYRCYGAHNLSSECSAPSDPLDILITGQIRGTPFISVQPGPTVASGENVTLLCQSWRQFHTFLLTKAGAADAPLRLRSIHEYPKYQAEFPMSPVTSAHAGTYRCYGSLNSDPYLLSHPSEPLELVVSGPSMGSSPPPTGPISTPGPEDQPLTPTGSDPQSGLGRHLGVVIGILVAVVLLLLLLLLLFLILRHRRQGKHWTSTQRKADFQHPAGAVGPEPTDRGLQWRSSPAADAQEENLYAAVKDTQPEDGVEMDTRAAASEAPQDVTYAQLHSLTLRRKATEPPPSQEREPPAEPSIYATLAIH
B9: LILRB2 Ig2 domain expressed on 293T cells (receptor)
chain: AYPKPTLSAQPSPVVTSGGRVTLQCESQVAFGGFILCKEGEEEHPQCLNSQPHARGSSRAIFSVGPVSPNRRWSHRCYGYDLNSPYVWSSPSDLLELLVP
notes: The range is stated for the chimeric reporter constructs; also called 2nd Ig domain
B10: LILRB2 Ig3 domain expressed on 293T cells (receptor)
chain: VSKKPSLSVQPGPVVAPGESLTLQCVSDVGYDRFVLYKEGERDLRQLPGRQPQAGLSQANFTLGPVSRSYGGQYRCYGAHNLSSECSAPSDPLDILITGQ
notes: The range is stated for the chimeric reporter constructs; also called 3rd Ig domain
B11: LILRB2 Ig1 domain expressed on 293T cells (receptor)
chain: GTIPKPTLWAEPDSVITQGSPVTLSCQGSLEAQEYRLYREKKSASWITRIRPELVKNGQFHIPSITWEHTGRYGCQYYSRARWSELSDPLVLVMTG
notes: The range is stated for the chimeric reporter constructs; also called 1st Ig domain

In the first experiment the target is T1, Angptl2-FLAG, full-length human Angptl2 …. Description: flow cytometry, ligand on mutant LILRB2 (FIG. 6G). The procedure:
(§1) Flow cytometry. […] Cells were harvested at 48 h for analysis. […] Anti-LILRB2-PE was used as indicated. Cells were analyzed using either a FACSCalibur or FACSAria instrument (Becton Dickinson).
A general note: In flow cytometry, cells or beads pass a laser one at a time.
With B1, the binding result is “binds”.

On to B2, for which the binding result is listed as “binds”.

Take B3: the binding result is reported as “binds”.

Take B4: the binding result is on record as “binds”.

Take B5: the binding result is given as “binds”.

In the case of B6, the binding result is recorded as “binds”.

B7: the binding result is listed as “binds”.

In the case of B8, the binding result was “binds”.

A further experiment has the same target. As to the kind of experiment: flow cytometry, Angptl2 on 293T cells expressing the domain. How it is done:
as §1
LILRB2 contains four extracellular immunoglobulin (Ig)-like domains. Takai et al., J Biomed Biotechnol. 2011; 2011:275302. […] To test this hypothesis, a number of domain and site-specific mutations of LILRB2 were generated for the flow cytometry-based cell surface ligand binding assay and chimeric reporter assay.
In the case of B9, the binding result is recorded as “no binding”.

As to B10, the binding result is given as “no binding”.

Turning to B11, the binding result was “no binding”.

The record behind these values is patent publication US20170260508A1 (FRED HUTCHINSON CANCER RESEARCH CENTER, published 2017).
